Source: US20260242478A1 (published 2026)
Where no end group is shown, it is not given here.

B1: Phage-2609 (peptide)
peptide: MVKWCTPAWMCTLE
modifications: cysteine pairing not given here; also: displayed on phage as pIII fusion, linker and pIII sequence not given here
notes: Clonal phage of the peptide-180 library; not shown: fused to pIII of the bacteriophage
B2: Phage-2610 (peptide)
peptide: SSMLCIPPWMCEQS
modifications: cysteine pairing not given here; also: displayed on phage as pIII fusion, linker and pIII sequence not given here
notes: as for B1
B3: Phage-2607 (peptide)
peptide: QMKLCIPQWMCVDH
modifications: cysteine pairing not given here; also: displayed on phage as pIII fusion, linker and pIII sequence not given here
notes: as for B1
B4: Phage-2606 (peptide)
peptide: VDKWCIPAWMCDRS
modifications: cysteine pairing not given here; also: displayed on phage as pIII fusion, linker and pIII sequence not given here
notes: as for B1
B5: Phage-2604 (peptide)
peptide: VWQLCIPPWMCQFE
modifications: cysteine pairing not given here; also: displayed on phage as pIII fusion, linker and pIII sequence not given here
notes: as for B1
B6: Phage-2608 (peptide)
peptide: LHKLCIPEWMCEYY
modifications: cysteine pairing not given here; also: displayed on phage as pIII fusion, linker and pIII sequence not given here
notes: as for B1
B7: Phage-2605 (peptide)
peptide: VMKWCTPSWMCEHI
modifications: cysteine pairing not given here; also: displayed on phage as pIII fusion, linker and pIII sequence not given here
notes: as for B1
B8: Phage-2571 (peptide)
peptide: IAKWCIPSWMCAGI
modifications: cysteine pairing not given here; also: fused to phage pIII, linker and fusion site not given here
B9: Phage-2563 (peptide)
peptide: NWKWCIPEWMCAAE
modifications: cysteine pairing not given here; also: fused to phage pIII, linker and fusion site not given here
B10: Phage-2579 (peptide)
peptide: GPKWCTPPWMCWEF
notes: Clonal phage displaying the peptide, tested as crude supernatant; also called peptide-180 library clone; not shown: fused to the pIII filament protein of the bacteriophage
B11: Phage-2583 (peptide)
peptide: EVMWCRPAWMCDGI
notes: as for B10
B12: Phage-2587 (peptide)
peptide: VGKWCVPMWMCATD
modifications: cysteine pairing not given here; also: fused to phage pIII, linker and fusion site not given here
notes: as for B10
B13: Phage-2581 (peptide)
peptide: SEKWCIPEWMCMYA
notes: as for B10
B14: Phage-2585 (peptide)
peptide: DLKRCIPDWMCAVA
modifications: cysteine pairing not given here; also: fused to phage pIII, linker and fusion site not given here
notes: as for B10
B15: Phage-2584 (peptide)
peptide: VVKWCKPAWMCEQA
notes: as for B10
B16: Phage-2575 (peptide)
peptide: EFKWCTPEWMCAMA
modifications: cysteine pairing not given here; also: fused to phage pIII, linker and fusion site not given here
notes: as for B10
B17: Phage-2576 (peptide)
peptide: QEKMCIPAWMCSEY
notes: as for B10
B18: Phage-2578 (peptide)
peptide: LQEWCIPPWMCIKS
notes: as for B10
B19: Phage-2582 (peptide)
peptide: EGKWCIPEWMCISV
notes: as for B10
B20: Phage-2580 (peptide)
peptide: GVKWCTPAWMCEWT
notes: as for B10
B21: Phage-2586 (peptide)
peptide: ETQMCVPQWMCWGI
notes: as for B10
B22: Phage-2577 (peptide)
peptide: LTNWCTPSWMCYGL
notes: as for B10
B23: Phage-2573 (peptide)
peptide: VDTWCTPPWMCWGL
modifications: cysteine pairing not given here; also: fused to phage pIII, linker and fusion site not given here
notes: also called peptide-180 library clone; not shown: fused to the pIII filament protein of the bacteriophage
B24: Phage-2574 (peptide)
peptide: TFKWCTPAWMCAGF
modifications: cysteine pairing not given here; also: fused to phage pIII, linker and fusion site not given here
notes: as for B10

molecular target: T1, PSMA Fab (biotinylated (site not stated)); experiment: clonal phage ELISA on captured PSMA Fab, wells pre-incubated with PSMA antigen as competitor; column meaning inferred
T1 construct: also called Anti-PSMA Fab; 006 PSMA Fab

Row | Binder | Phage binding ELISA signal, Anti-PSMA Fab in presence of PSMA antigen
1 | B1 | 0.0801
2 | B2 | 0.0682
3 | B3 | 0.0553
4 | B4 | 0.0604
5 | B5 | 0.113
6 | B6 | 0.0595
7 | B7 | 0.0582

molecular target: T1, PSMA Fab; experiment: clonal phage ELISA on biotinylated PSMA Fab captured on neutravidin plates, anti-M13 HRP detection;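 also: crude clonal phage supernatants tested, before phage were added, wells were pretreated with PSMA antigen in blocking buffer or with blocking buffer only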
Method: (§1) Clonal phage were harvested as crude supernatants and screened via standard ELISAs. […] Prior to the addition of clonal phage. wells were incubated with blocking buffer and PSMA antigen or blocking buffer alone. Without washing or aspirating, clonal phage supernatants were then added to the wells and incubated for a short time. Wells were then washed followed by detection of bound phage using a horse radish conjugated anti-M13 antibody.

Row | Binder | Phage binding ELISA signal, Anti-PSMA Fab
8 | B1 | 1.02
9 | B2 | 1.02
10 | B3 | 1.03
11 | B4 | 1.03
12 | B5 | 1.03
13 | B6 | 1.03
14 | B7 | 1.03

molecular target: T2, PSMA Fab (SEQ ID NOs: 19, 20); experiment: phage ELISA; biotinylated PSMA Fab on neutravidin plate, anti-M13 HRP; no PSMA antigen
T2 construct: Biotinylated and captured on neutravidin coated plates in the phage ELISA; also called Anti-PSMA Fab; 006 PSMA Fab
Method: as §1

Row | Binder | phage binding ELISA signal
15 | IAKLCTPAWMCERH [Phage-2562] | 1.11
16 | WENWCTPTWMCWPN [Phage-2558] | 1.12
17 | B8 | 1.1
18 | VDPWCKPAWMCLGM [Phage-2566] | 1.11
19 | EGPWCIPEWMCQNS [Phage-2570] | 1.1
20 | EPKWCTPPWMCENF [Phage-2567] | 1.11
21 | SEIWCIPAWMCQST [Phage-2564] | 1.11
22 | YDVLCKPDWMCNWN [Phage-2568] | 1.11
23 | QYNWCVPAWMCEIS [Phage-2572] | 1.1
24 | B9 | 1.11
25 | AIHWCTPPWMCEPQ [Phage-2569] | 1.1
26 | YAPWCIPLWMCLDR [Phage-2561] | 1.11
27 | VEKWCIPEWMCWTV [Phage-2565] | 1.11
28 | WDKWCTPPWMCQVH [Phage-2559] | 1.12
29 | GVMWCIPQWMCVTA [Phage-2560] | 1.12

molecular target: T3, PSMA Fab (biotinylated (site not stated)); experiment: clonal phage ELISA on biotinylated PSMA Fab captured on neutravidin plates, blocking buffer alone, anti-M13-HRP detection
T3 construct: also called Anti-PSMA Fab; 006 PSMA Fab

Row | Binder | phage binding ELISA signal
30 | B10 | 1.08
31 | B11 | 1.07
32 | B12 | 1.06
33 | B13 | 1.08
34 | B14 | 1.07
35 | B15 | 1.07
36 | B16 | 1.09
37 | B17 | 1.09
38 | B18 | 1.09
39 | B19 | 1.08
40 | B20 | 1.08
41 | B21 | 1.07
42 | B22 | 1.09
43 | B23 | 1.09
44 | B24 | 1.09

molecular target: T3, PSMA Fab; experiment: clonal phage ELISA on captured PSMA Fab pre-incubated with PSMA antigen (competitor: PSMA), anti-M13-HRP detection
Method: as §1

Row | Binder | phage binding ELISA signal in presence of PSMA
45 | B10 | 0.331
46 | B11 | 0.0623
47 | B12 | 0.0735
48 | B13 | 0.0532
49 | B14 | 0.0617
50 | B15 | 0.0788
51 | B16 | 0.0845
52 | B17 | 0.0615
53 | B18 | 0.0797
54 | B19 | 0.0637
55 | B20 | 0.0707
56 | B21 | 0.0571
57 | B22 | 0.0817
58 | B23 | 0.0695
59 | B24 | 0.0801

molecular target: T2, PSMA Fab (SEQ ID NOs: 19, 20); experiment: phage ELISA; biotinylated PSMA Fab on neutravidin plate, anti-M13 HRP; competitor PSMA antigen pre-incubated
Method: as §1

Row | Binder | phage binding ELISA signal
60 | IAKLCTPAWMCERH [Phage-2562] | 0.0803
61 | WENWCTPTWMCWPN [Phage-2558] | 0.0834
62 | B8 | 0.139
63 | VDPWCKPAWMCLGM [Phage-2566] | 0.0597
64 | EGPWCIPEWMCQNS [Phage-2570] | 0.0766
65 | EPKWCTPPWMCENF [Phage-2567] | 0.0576
66 | SEIWCIPAWMCQST [Phage-2564] | 0.0851
67 | YDVLCKPDWMCNWN [Phage-2568] | 0.0861
68 | QYNWCVPAWMCEIS [Phage-2572] | 0.0848
69 | B9 | 0.0635
70 | AIHWCTPPWMCEPQ [Phage-2569] | 0.0777
71 | YAPWCIPLWMCLDR [Phage-2561] | 0.161
72 | VEKWCIPEWMCWTV [Phage-2565] | 0.0709
73 | WDKWCTPPWMCQVH [Phage-2559] | 0.0758
74 | GVMWCIPQWMCVTA [Phage-2560] | 0.104
